Assay [1] concerns the target T1, human MHC class II DR protein (DRA*0101/DRB1*0401) purified from Priess cells (human, UniProt P01903 26-254; P01911 30-266, limits assumed).
T1 construct: mature; Native heterodimer isolated from cell lysate; Coated on ELISA plates or coupled to a BIAcore CM5 chip; also called HLA-DR protein; MHC-class II DRA*0101/DRB1*0401
T1 MHC II alpha: not shown
T1 MHC II beta: not shown
The assay is described as follows: SPR (Biacore), DR protein on the chip. (Surface plasmon resonance follows binding to a sensor surface in real time, without labels.)

Assay [2] has as its target HLA-DR on the human B lymphoblastoid cell line LG-2 (human). The assay is described as follows: flow cytometry on LG-2 cells, 35 ug Fab first; competitor 1-1C4 (2 ug).
For assay [3], the target named is HLA-DR on HLA-DR-positive cell lines (GRANTA-519, MHH-CALL4, Priess or LG2; allotype not stated) (human). As to the kind of experiment: cell-based or functional assay.

“And” between values parts separate entries of the source, which are not always exact repeats. Equal entries are not always repeated. Where only a bound is given, the exact number is not on record here.

B1: MS-GPC-8-Fab (Fab, V domains shown)
VH: QVQLKESGPALVKPTQTLTLTCTFSGFSLSTSGVGVGWIRQPPGKALEWLALIDWDDDKYYSTSLKTRLTISKDTSKNQVVLTMTNMDPVDTATYYCARSPRYRGAFDYWGQGTLVTVSS
VL: DIVLTQPPSVSGAPGQRVTISCSGSSSNIGSNYVSWYQQLPGTAPKLLIYDNNQRPSGVPDRFSGSKSGTSASLAITGLQSEDEADYYCQSYDMPQAVFGGGTKLTVLG
As a reminder, the Kd is the constant that tells how readily two partners part at equilibrium. A high value points to lower affinity. As to B1, in assay [1], binding was put at a Kd of 346 nM. Further, the decrease of binding of the mouse antibody in assay [2] is 50%. In assay [3], the EC50 of cell killing (Priess or LG2 cells), as concentration of the bivalent cross-linked (Fab) dimer is less than 60 nM; the EC50 of cell killing (Priess or LG2 cells), as concentration of the monovalent fragment, cross-linked with anti-FLAG M2 is less than 120 nM; the EC50 of cell killing (concentration of the bivalent cross-linked Fab dimer; cell line not named here) is 20 nM and 40 nM; the maximal killing of MHH-CALL 4 cells was determined as 65%.
